Data reported in patent US20220193133A1 (CENTURY THERAPEUTICS, published 2022).

Key:
[1] = biological target: T1, chicken lysozyme (Hen Egg Lysozyme) (chicken, UniProt P00698 19-147, biotinylated); assay: flow cytometry, CAR Jurkat cells + 10 ug/mL biotinylated lysozyme, streptavidin-APC, % positive cells
T1 construct: also called HEL; chicken egg white lysozyme

[2] = biological target: T2, human lysozyme (human, UniProt P61626 19-148, biotinylated); assay: as above
T2 construct: also called human lysozyme protein
T2 sequence (looked up): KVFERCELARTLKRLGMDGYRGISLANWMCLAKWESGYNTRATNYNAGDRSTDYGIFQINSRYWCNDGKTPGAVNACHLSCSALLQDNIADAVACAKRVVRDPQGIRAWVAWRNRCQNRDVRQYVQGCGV

[3] = biological target: T3, D04 protein (humanized D04 VHH as ELISA antigen); assay: periplasmic extract ELISA, absorbance 450 nm, single point
T3 construct: Panning used biotinylated D04-Fc; the ELISA legend says only 'D04 protein'

[4] = biological target: T4, B11 protein (humanized B11 VHH as ELISA antigen); assay: as above
T4 construct: Panning used B11-Fc; the ELISA legend says only 'B11 protein'

[5] = biological target: T5, humanized B11 VHH CAR (hyLYSO_CW_P01_B11) on Nurkat cells; assay: flow cytometry, VHH-Fc on CAR Nurkat cells, 3-fold dilutions 50 to 0.02 nM, anti-Fc APC, %Fc positive cells
T5 construct: also called B11 (p1649); P1649
Description: (§1) […] Fc-fusion protein was detected via anti-Fc APC, and the percentage of cells that were positive for this detection method are shown. […] Controls include (i) no VHH-Fc added and (ii) the anti-VHH cocktail detection reagent (far right). The samples shown in the graphs for each protein appear in the order as specified in the legend.

[6] = biological target: T6, humanized D04 VHH CAR (hyLYSO_CW_P01_D04) on Nurkat cells or primary T cells; assay: as above
T6 construct: also called D04 (p1648); P1650
Description: as §1

[7] = biological target: T7, B11-his tagged VHH (humanized B11); assay: Octet (BLI), anti-idiotype VHH-Fc vs his-tagged VHH; table title prints D04-his, its footnote prints B11-his
T7 construct: also called B11-his protein; B11 his-tagged protein

[8] = biological target: T8, D04-his tagged VHH (humanized D04); assay: Octet (BLI), anti-idiotype VHH-Fc vs his-tagged VHH; table title prints B11-his, paragraph 353 ties these values to D04
T8 construct: also called LysoD04.His; D04 his-tagged protein

T1 sequence (P00698 19-147): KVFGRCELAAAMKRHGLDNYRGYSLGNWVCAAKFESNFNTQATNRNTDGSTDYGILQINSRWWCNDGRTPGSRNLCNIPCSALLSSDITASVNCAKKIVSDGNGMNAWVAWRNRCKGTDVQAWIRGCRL

B1: LYSO_CW_P01_B11 VHH CAR (camelid B11) on Jurkat cells (other, not shown: small tags and cut ends)
chain: QVQLVESGGGLVQAGGSLRLSCAASGGIFSGGRMGWFRQAPGKEREFVAAVITRGGSTYYADSVKGRFTISRDNAKNTVYLQMNSLKPEDTAVYYCAASEVTYDEGRYIGTKSTYDTWGQGTQVTVSS
notes: camelid (not humanized) VHH; also called B11(p242)
[1]
  binding result: binds
[2]
  binding result: no binding (tested: 10 ug/mL)

B2: p245 (other)
CAR: QVQLVESGGGLVQAGGSLRLSCAASGGIFSGGRMGWFRQAPGKEREFVAAVITRGGSTYYADSVKGRFTISRDNAKNTVYLQMNSLKPEDTAVYYCAASEVTYDEGHYIGTKSTYDTWGQGTQVTVSS
[2]
  binding result: no binding (tested: 10 ug/mL)

B3: huD04_CNTY2_F04 anti-idiotype VHH (periplasmic extract) (VHH)
VHH: EVQLLESGGGLVQPGGSLRLSCAASGRTFSSYGMGWYRQAPGKERELVSAISNRGSTYYADSVKGRFTISRDNSKNTLYLQMNSLRAEDTAVYYCAASPARVGVSGHSSSRRSYYGYSYDYWGQGTQVTVSS
notes: Screened as periplasmic extract; also called VHH of AMD70
[3]
  binding result: binds

B4: huD04_CNTY2_H12 anti-idiotype VHH (periplasmic extract) (VHH)
VHH: EVQLLESGGGLVQPGGSLRLSCAASGSIFSSDVMGWYRQAPGKERELVSAISSGGSTRYADSVKGRFTISRDNSKNTLYLQMNSLRAEDTAVYYCAATMGKSKTNRRNYGTWRYGAYAYWGQGTQVTVSS
notes: Screened as periplasmic extract; also called VHH of ABD72 (AMD72)
[3]
  binding result: binds

B5: huD04_CNTY2_F12 anti-idiotype VHH (periplasmic extract) (VHH)
VHH: EVQLLESGGGLVQPGGSLRLSCAASGFTFSSNAMGWYRQAPGKEREFVSSISSGRSTTYADSVKGRFTISRDNSKNTLYLQMNSLRAEDTAVYYCAAHGTKYKWTRARLRSARQKQLETYRYWGQGTQVTVSS
notes: Screened as periplasmic extract; also called VHH of AMD74
[3]
  binding result: binds

B6: huD04_CNTY2_D02 anti-idiotype VHH (periplasmic extract) (VHH)
VHH: EVQLLESGGGLVQPGGSLRLSCAASGFTFRSYAMGWYRQAPGKEREGVSVISSGGTPSYADSVKGRFTISRDNSKNTLYLQMNSLRAEDTAVYYCDAIMGLVEADYVSTGTYEYTAYAYWGQGTQVTVSS
notes: Screened as periplasmic extract; also called VHH of AMD80
[4]
  binding result: no binding
[3]
  binding result: binds

B7: huD04_CNTY2_D12 anti-idiotype VHH (periplasmic extract) (VHH)
VHH: EVQLLESGGGLVQPGGSLRLSCAASGSAFSSNAMGWYRQAPGKERELVSAISSGGSTNYADSVKGRFTISRDNSKNTLYLQMNSLRAEDTAVYYCAARNPLTYTALVSNAPSGDYYLFEYRLWGQGTQVTVSS
notes: Screened as periplasmic extract; also called VHH of AMD85
[4]
  binding result: no binding
[3]
  binding result: binds

B8: AMD69 (huD04_CNTY2_E03 anti-idiotype VHH IgG1-Fc fusion) (Fc fusion)
chain: EVQLLESGGGLVQPGGSLRLSCAASGLTYTGYAMGWYRQAPGKERELVSAISSRSSIYYADSVKGRFTISRDNSKNTLYLQMNSLRAEDTAVYYCAAGRPVALGSWRRTATWSAGLGAEYAYWGQGTQVTVSS
notes: not shown: IgG1 Fc
[5]
  binding result: no binding (tested: 50 nM)
[6]
  EC50 (read off the curve): ~4 nM

B9: AMD70 (Fc fusion)
VHH-Fc: EVQLLESGGGLVQPGGSLRLSCAASGRTFSSYGMGWYRQAPGKERELVSAISNRGSTYYADSVKGRFTISRDNSKNTLYLQMNSLRAEDTAVYYCAASPARVGVSGHSSSRRSYYGYSYDYWGQGTQVTVSS
notes: also called huD04_CNTY2_F04 anti-idiotype VHH IgG1-Fc fusion
[6]
  binding result: binds

B10: AMD72 (huD04_CNTY2_H12 anti-idiotype VHH IgG1-Fc fusion) (Fc fusion)
chain: EVQLLESGGGLVQPGGSLRLSCAASGSIFSSDVMGWYRQAPGKERELVSAISSGGSTRYADSVKGRFTISRDNSKNTLYLQMNSLRAEDTAVYYCAATMGKSKTNRRNYGTWRYGAYAYWGQGTQVTVSS
notes: also called ABD72; not shown: IgG1 Fc
[6]
  binding result: binds

B11: AMD74 (huD04_CNTY2_F12 anti-idiotype VHH IgG1-Fc fusion) (Fc fusion)
chain: EVQLLESGGGLVQPGGSLRLSCAASGFTFSSNAMGWYRQAPGKEREFVSSISSGRSTTYADSVKGRFTISRDNSKNTLYLQMNSLRAEDTAVYYCAAHGTKYKWTRARLRSARQKQLETYRYWGQGTQVTVSS
notes: not shown: IgG1 Fc
[6]
  binding result: binds

B12: AMD82 (huD04_CNTY1_B12 anti-idiotype VHH IgG1-Fc fusion) (Fc fusion)
chain: EVQLLESGGGLVQPGGSLRLSCAASGRTSSNYVMGWYRQAPGKEREGVSAITSGGSTYYADSVKGRFTISRDNSKNTLYLQMNSLRAEDTAVYYCAANLYSRTGAYDYWGQGTQVTVSS
notes: not shown: IgG1 Fc
[7]
  Response: -0.0225
[5]
  binding result: no binding (tested: 50 nM)
[6]
  EC50 (read off the curve): ~6 nM
[8]
  Kd: 125 nM
  Response: 0.172
  koff: 0.0868 s⁻¹
  kon: 697000 M⁻¹ s⁻¹

B13: huD04_CNTY2_E03 anti-idiotype VHH (periplasmic extract) (VHH)
VHH: EVQLLESGGGLVQPGGSLRLSCAASGLTYTGYAMGWYRQAPGKERELVSAISSRSSIYYADSVKGRFTISRDNSKNTLYLQMNSLRAEDTAVYYCAAGRPVALGSWRRTATWSAGLGAEYAYWGQGTQVTVSS
notes: Screened as periplasmic extract; also called VHH of AMD69
[4]
  binding result: no binding

B14: huD04_CNTY2_C03 anti-idiotype VHH (periplasmic extract) (VHH)
VHH: EVQLLESGGGLVQPGGSLRLSCAASGLTFSRYAMGWYRQAPGKERELVSAISSRRSTYYADSVKGRFTISRDNSKNTLYLQMNSLRAEDTAVYYCAADYRLTSLERARYASASITYDYWGQGTQVTVSS
notes: Screened as periplasmic extract; also called VHH of AMD78
[4]
  binding result: no binding

B15: huD04_CNTY2_B06 anti-idiotype VHH (periplasmic extract) (VHH)
VHH: EVQLLESGGGLVQPGGSLRLSCAASGFTFNRYSMGWYRQAPGKERELVSAISSGGSGYYADSVKGRFTISRDNSKNTLYLQMNSLRAEDTAVYYCAIQDYSRIWEYIALDRRRSYYGMDYWGQGTQVTVSS
notes: Screened as periplasmic extract; also called VHH of AMD79
[4]
  binding result: no binding

B16: huD04_CNTY2_D04 anti-idiotype VHH (periplasmic extract) (VHH)
VHH: EVQLLESGGGLVQPGGSLRLSCAASGLTFSGVCMGWFRQAPGKEREGVSAIYSSGSTYYADSVKGRFTISRDNSKNTLYLQMNSLRAEDTAVYYCAADRIPDLGEPCIGTTNLARTYNYWGQGTQVTVSS
notes: Screened as periplasmic extract; also called VHH of AMD81
[4]
  binding result: no binding

B17: AMD67 (Fc fusion)
VHH-Fc: EVQLLESGGGLVQPGGSLRLSCAASGRTFSSGAMGWYRQAPGKERELVSAISNRGSTVYADSVKGRFTISRDNSKNTLYLQMNSLRAEDTAVYYCAADRNPSSAGAGVAAYRLIARFNYWGQGTQVTVSS
notes: also called huD04_CNTY2_F09 anti-idiotype VHH IgG1-Fc fusion
[5]
  binding result: no binding (tested: 50 nM)

B18: AMD79 (Fc fusion)
VHH-Fc: EVQLLESGGGLVQPGGSLRLSCAASGFTFNRYSMGWYRQAPGKERELVSAISSGGSGYYADSVKGRFTISRDNSKNTLYLQMNSLRAEDTAVYYCAIQDYSRIWEYIALDRRRSYYGMDYWGQGTQVTVSS
notes: also called huD04_CNTY2_B06 anti-idiotype VHH IgG1-Fc fusion
[5]
  binding result: no binding (tested: 50 nM)

B19: AMD81 (Fc fusion)
VHH-Fc: EVQLLESGGGLVQPGGSLRLSCAASGLTFSGVCMGWFRQAPGKEREGVSAIYSSGSTYYADSVKGRFTISRDNSKNTLYLQMNSLRAEDTAVYYCAADRIPDLGEPCIGTTNLARTYNYWGQGTQVTVSS
notes: also called huD04_CNTY2_D04 anti-idiotype VHH IgG1-Fc fusion
[5]
  binding result: no binding (tested: 50 nM)

B20: AMD87 (huD04_CNTY1_D11 anti-idiotype VHH IgG1-Fc fusion) (Fc fusion)
chain: EVQLLESGGGLVQPGGSLRLSCAASGSTFSYYYMGWYRQAPGKERELVSAISSGGSIYYADSVKGRFTISRDNSKNTLYLQMNSLRAEDTAVYYCARRTYYGDEADYWGQGTQVTVSS
notes: not shown: IgG1 Fc
[7]
  Response: -0.0301
[5]
  binding result: no binding (tested: 50 nM)

B21: AMD71 (huB11_CNTY3+4_A02 anti-idiotype VHH IgG1-Fc fusion) (Fc fusion)
chain: EVQLLESGGGLVQPGGSLRLSCAASGRTYTGSAMGWYRQAPGKERELVSAISTGGETYYADSVKGRFTISRDNSKNTLYLQMNSLRAEDTAVYYCAAGYVGLPYTYRPATSRRGYTYWGQGTQVTVSS
notes: not shown: IgG1 Fc
[7]
  Kd: 515 nM
  Response: 0.0566
  koff: 0.14 s⁻¹
  kon: 273000 M⁻¹ s⁻¹
[6]
  binding result: no binding (tested: 50 nM)

B22: AMD73 (Fc fusion)
VHH-Fc: EVQLLESGGGLVQPGGSLRLSCAASGFTFSSYSIGWYRQAPGKERELVSVISSGGSTYYADSVKGRFTISRDNSKNTLYLQMNSLRAEDTAVYYCAASDWSYSWITYTGTWRLYEYWGQGTQVTVSS
notes: also called huB11_CNTY3+4_A01 anti-idiotype VHH IgG1-Fc fusion
[6]
  binding result: no binding (tested: 50 nM)

B23: AMD75 (Fc fusion)
VHH-Fc: EVQLLESGGGLVQPGGSLRLSCAASGFAFSDYVMGWYRQAPGKEREFVSAIRSTTSTYYADSVKGRFTISRDNSKNTLYLQMNSLRAEDTAVYYCAADVWSGYEYDYWGQGTQVTVSS
notes: also called huB11_CNTY1_E11 anti-idiotype VHH IgG1-Fc fusion
[6]
  binding result: no binding (tested: 50 nM)

B24: AMD76 (Fc fusion)
VHH-Fc: EVQLLESGGGLVQPGGSLRLSCAASGLAFSSYAMGWYRQAPGKEREFVSVISGTGETLYADSVKGRFTISRDNSKNTLYLQMNSLRAEDTAVYYCAADVWSGYEYDYWGQGTQVTVSS
notes: also called huB11_CNTY1_B11 anti-idiotype VHH IgG1-Fc fusion
[6]
  binding result: no binding (tested: 50 nM)
